# System: plasma proteins
# Test: Plasma proteins modulated between baseline and day 28 in responders (CR, VGPR, PR; n = 19), Example 6 (Table 13)
# Format: in vivo, human
# Conditions: plasma protein (OLINK NPX); responders (CR, VGPR, PR; n = 19); itacitinib 200 mg or 300 mg QD with corticosteroids; day 28 vs baseline
# Outline: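 Plasma at baseline/screening and day 28 profiled for >1000 proteins by OLINK proximity extension assay, reported as NPX (log2). Steroid-naive and steroid-refractory patients pooled. Paired and unpaired t tests, ANOVA and Pearson correlation applied; significance at P<0.05.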
Molecule,"Fold Change, Decreased Expression from Baseline to Day 28","Fold Change, Increased Expression from Baseline to Day 28"
"PEBP1 (protein, UniProt P30086 2-187, looked up) Phosphatidylethanolamine-bindi …: PVDLSKWSGPLSLQEVDEQPQHPLHVTYAGAAVDELGKVLTPTQVKNRPTSISWDGLDSGKLYTLVLTDPDAPSRKDPKYREWHHFLVVNMKGNDISSGTVLSDYVGSGPPKGTGLHRYVWLVYEQDRPLKCDEPILSNRSGDHRGKFKVASFRKKYELRAPVAGTCYQAEWDDYVPKLYEQLSGK",−1.307,
"PDGF subunit B (protein, UniProt P01127 82-190, looked up) Platelet-derived growth …: SLGSLTIAEPAMIAECKTRTEVFEISRRLIDRTNANFLVWPPCVEVQRCSGCCNNRNVQCRPTQVQLRPVQVRKIEIVRKKPIFKKATVTLEDHLACKCETVAAARPVT",−1.9124,
"SCARF1 (protein, UniProt Q14162 20-830, looked up) Scavenger receptor class F …: SELDPKGQHVCVASSPSAELQCCAGWRQKDQECTIPICEGPDACQKDEVCVKPGLCRCKPGFFGAHCSSRCPGQYWGPDCRESCPCHPHGQCEPATGACQCQADRWGARCEFPCACGPHGRCDPATGVCHCEPGWWSSTCRRPCQCNTAAARCEQATGACVCKPGWWGRRCSFRCNCHGSPCEQDSGRCACRPGWWGPECQQQCECVRGRCSAASGECTCPPGFRGARCELPCPAGSHGVQCAHSCGRCKHNEPCSPDTGSCESCEPGWNGTQCQQPCLPGTFGESCEQQCPHCRHGEACEPDTGHCQRCDPGWLGPRCEDPCPTGTFGEDCGSTCPTCVQGSCDTVTGDCVCSAGYWGPSCNASCPAGFHGNNCSVPCECPEGLCHPVSGSCQPGSGSRDTALIAGSLVPLLLLFLGLACCACCCWAPRSDLKDRPARDGATVSRMKLQVWGTLTSLGSTLPCRSLSSHKLPWVTVSHHDPEVPFNHSFIEPPSAGWATDDSFSSDPESGEADEVPAYCVPPQEGMVPVAQAGSSEASLAAGAFPPPEDASTPFAIPRTSSLARAKRPSVSFAEGTKFAPQSRRSSGELSSPLRKPKRLSRGAQSGPEGREAEESTGPEEAEAPESFPAAASPGDSATGHRRPPLGGRTVAEHVEAIEGSVQESSGPVTTIYMLAGKPRGSEGPVRSVFRHFGSFQKGQAEAKVKRAIPKPPRQALNRKKGSPGLASGSVGQSPNSAPKAGLPGATGPMAVRPEEAVRGLGAGTESSRRAQEPVSGCGSPEQDPQKQAEEERQEEPEYENVVPISRPPEP",−1.3509,
"hK14 (protein, UniProt Q9P0G3 41-267, looked up) Kallikrein-14: IIGGHTCTRSSQPWQAALLAGPRRRFLCGGALLSGQWVITAAHCGRPILQVALGKHNLRRWEATQQVLRVVRQVTHPNYNSRTHDNDLMLLQLQQPARIGRAVRPIEVTQACASPGTSCRVSGWGTISSPIARYPASLQCVNINISPDEVCQKAYPRTITPGMVCAGVPQGGKDSCQGDSGGPLVCRGQLQGLVSWGMERCALPGYPGVYTNLCKYRSWIEETMRDK",,1.5574
"CCL17 (protein, UniProt Q92583 24-94, looked up) C-C motif chemokine 17: ARGTNVGRECCLEYFKGAIPLRKLKTWYQTSEDCSRDAIVFVTVQGRAICSDPNNKRVKNAVKYLQSLERS",−3.059,
"EPHB4 (protein, UniProt P54760 16-987, looked up) Ephrin type-B receptor 4: LEETLLNTKLETADLKWVTFPQVDGQWEELSGLDEEQHSVRTYEVCDVQRAPGQAHWLRTGWVPRRGAVHVYATLRFTMLECLSLPRAGRSCKETFTVFYYESDADTATALTPAWMENPYIKVDTVAAEHLTRKRPGAEATGKVNVKTLRLGPLSKAGFYLAFQDQGACMALLSLHLFYKKCAQLTVNLTRFPETVPRELVVPVAGSCVVDAVPAPGPSPSLYCREDGQWAEQPVTGCSCAPGFEAAEGNTKCRACAQGTFKPLSGEGSCQPCPANSHSNTIGSAVCQCRVGYFRARTDPRGAPCTTPPSAPRSVVSRLNGSSLHLEWSAPLESGGREDLTYALRCRECRPGGSCAPCGGDLTFDPGPRDLVEPWVVVRGLRPDFTYTFEVTALNGVSSLATGPVPFEPVNVTTDREVPPAVSDIRVTRSSPSSLSLAWAVPRAPSGAVLDYEVKYHEKGAEGPSSVRFLKTSENRAELRGLKRGASYLVQVRARSEAGYGPFGQEHHSQTQLDESEGWREQLALIAGTAVVGVVLVLVVIVVAVLCLRKQSNGREAEYSDKHGQYLIGHGTKVYIDPFTYEDPNEAVREFAKEIDVSYVKIEEVIGAGEFGEVCRGRLKAPGKKESCVAIKTLKGGYTERQRREFLSEASIMGQFEHPNIIRLEGVVTNSMPVMILTEFMENGALDSFLRLNDGQFTVIQLVGMLRGIASGMRYLAEMSYVHRDLAARNILVNSNLVCKVSDFGLSRFLEENSSDPTYTSSLGGKIPIRWTAPEAIAFRKFTSASDAWSYGIVMWEVMSFGERPYWDMSNQDVINAIEQDYRLPPPPDCPTSLHQLMLDCWQKDRNARPRFPQVVSALDKMIRNPASLKIVARENGGASHPLLDQRQPHYSAFGSVGEWLRAIKMGRYEESFAAAGFGSFELVSQISAEDLLRIGVTLAGHQKKILASVQHMKSQAKPGTPGGTGGPAPQY",−1.2339,
"ARHGAP1 (protein, UniProt Q07960 1-439, looked up) Rho GTPase-activating protein …: MDPLSELQDDLTLDDTSEALNQLKLASIDEKNWPSDEMPDFPKSDDSKSSSPELVTHLKWDDPYYDIARHQIVEVAGDDKYGRKIIVFSACRMPPSHQLDHSKLLGYLKHTLDQYVESDYTLLYLHHGLTSDNKPSLSWLRDAYREFDRKYKKNIKALYIVHPTMFIKTLLILFKPLISFKFGQKIFYVNYLSELSEHVKLEQLGIPRQVLKYDDFLKSTQKSPATAPKPMPPRPPLPNQQFGVSLQHLQEKNPEQEPIPIVLRETVAYLQAHALTTEGIFRRSANTQVVREVQQKYNMGLPVDFDQYNELHLPAVILKTFLRELPEPLLTFDLYPHVVGFLNIDESQRVPATLQVLQTLPEENYQVLRFLTAFLVQISAHSDQNKMTNTNLAVVFGPNLLWAKDAAITLKAINPINTFTKFLLDHQGELFPSPDPSGL",−1.6039,
"CLM-1 (protein, UniProt Q8TDQ1 20-290, looked up) CMRF35-like molecule 1: TQITGPTTVNGLERGSLTVQCVYRSGWETYLKWWCRGAIWRDCKILVKTSGSEQEVKRDRVSIKDNQKNRTFTVTMEDLMKTDADTYWCGIEKTGNDLGVTVQVTIDPAPVTQEETSSSPTLTGHHLDNRHKLLKLSVLLPLIFTILLLLLVAASLLAWRMMKYQQKAAGMSPEQVLQPLEGDLCYADLTLQLAGTSPQKATTKLSSAQVDQVEVEYVTMASLPKEDISYASLTLGAEDQEPTYCNMGHLSSHLPGRGPEEPTEYSTISRP",−1.3921,
"DAB2 (protein, UniProt P98082 2-770, looked up) Disabled homolog 2: SNEVETSATNGQPDQQAAPKAPSKKEKKKGPEKTDEYLLARFKGDGVKYKAKLIGIDDVPDARGDKMSQDSMMKLKGMAAAGRSQGQHKQRIWVNISLSGIKIIDEKTGVIEHEHPVNKISFIARDVTDNRAFGYVCGGEGQHQFFAIKTGQQAEPLVVDLKDLFQVIYNVKKKEEEKKKIEEASKAVENGSEALMILDDQTNKLKSGVDQMDLFGDMSTPPDLNSPTESKDILLVDLNSEIDTNQNSLRENPFLTNGITSCSLPRPTPQASFLPENAFSANLNFFPTPNPDPFRDDPFTQPDQSTPSSFDSLKSPDQKKENSSSSSTPLSNGPLNGDVDYFGQQFDQISNRTGKQEAQAGPWPFSSSQTQPAVRTQNGVSEREQNGFSVKSSPNPFVGSPPKGLSIQNGVKQDLESSVQSSPHDSIAIIPPPQSTKPGRGRRTAKSSANDLLASDIFAPPVSEPSGQASPTGQPTALQPNPLDLFKTSAPAPVGPLVGLGGVTVTLPQAGPWNTASLVFNQSPSMAPGAMMGGQPSGFSQPVIFGTSPAVSGWNQPSPFAASTPPPVPVVWGPSASVAPNAWSTTSPLGNPFQSNIFPAPAVSTQPPSMHSSLLVTPPQPPPRAGPPKDISSDAFTALDPLGDKEIKDVKEMFKDFQLRQPPAVPARKGEQTSSGTLSAFASYFNSKVGIPQENADHDDFDANQLLNKINEPPKPAPRQVSLPVTKSTDNAFENPFFKDSFGSSQASVASSQPVSSEMYRDPFGNPFA",−1.2548,
"LYN (protein, UniProt P07948 2-512, looked up) Tyrosine-protein kinase Lyn: GCIKSKGKDSLSDDGVDLKTQPVRNTERTIYVRDPTSNKQQRPVPESQLLPGQRFQTKDPEEQGDIVVALYPYDGIHPDDLSFKKGEKMKVLEEHGEWWKAKSLLTKKEGFIPSNYVAKLNTLETEEWFFKDITRKDAERQLLAPGNSAGAFLIRESETLKGSFSLSVRDFDPVHGDVIKHYKIRSLDNGGYYISPRITFPCISDMIKHYQKQADGLCRRLEKACISPKPQKPWDKDAWEIPRESIKLVKRLGAGQFGEVWMGYYNNSTKVAVKTLKPGTMSVQAFLEEANLMKTLQHDKLVRLYAVVTREEPIYIITEYMAKGSLLDFLKSDEGGKVLLPKLIDFSAQIAEGMAYIERKNYIHRDLRAANVLVSESLMCKIADFGLARVIEDNEYTAREGAKFPIKWTAPEAINFGCFTIKSDVWSFGILLYEIVTYGKIPYPGRTNADVMTALSQGYRMPRVENCPDELYDIMKMCWKEKAEERPTFDYLQSVLDDFYTATEGQYQQQP",−1.2337,
"APBB1IP (protein, UniProt Q7Z5R6 1-666, looked up) Amyloid beta A4 precursor …: MGESSEDIDQMFSTLLGEMDLLTQSLGVDTLPPPDPNPPRAEFNYSVGFKDLNESLNALEDQDLDALMADLVADISEAEQRTIQAQKESLQNQHHSASLQASIFSGAASLGYGTNVAATGISQYEDDLPPPPADPVLDLPLPPPPPEPLSQEEEEAQAKADKIKLALEKLKEAKVKKLVVKVHMNDNSTKSLMVDERQLARDVLDNLFEKTHCDCNVDWCLYEIYPELQIERFFEDHENVVEVLSDWTRDTENKILFLEKEEKYAVFKNPQNFYLDNRGKKESKETNEKMNAKNKESLLEESFCGTSIIVPELEGALYLKEDGKKSWKRRYFLLRASGIYYVPKGKTKTSRDLACFIQFENVNIYYGTQHKMKYKAPTDYCFVLKHPQIQKESQYIKYLCCDDTRTLNQWVMGIRIAKYGKTLYDNYQRAVAKAGLASRWTNLGTVNAAAPAQPSTGPKTGTTQPNGQIPQATHSVSAVLQEAQRHAETSKDKKPALGNHHDPAVPRAPHAPKSSLPPPPPVRRSSDTSGSPATPLKAKGTGGGGLPAPPDDFLPPPPPPPPLDDPELPPPPPDFMEPPPDFVPPPPPSYAGIAGSELPPPPPPPPAPAPAPVPDSARPPPAVAKRPPVPPKRQENPGHPGGAGGGEQDFMSDLMKALQKKRGNVS",−1.4021,

# Reference: US12099068B2, “Biomarkers for graft-versus-host disease” (Incyte Corporation, priority 2018, dated 2024)
